Values of other authors in article PMC3320014.

Molecular target: Protein Z-dependent protease inhibitor (Homo sapiens) (UniProt Q9UK55)
Sequence of UniProt Q9UK55 (Q9UK55 22-444): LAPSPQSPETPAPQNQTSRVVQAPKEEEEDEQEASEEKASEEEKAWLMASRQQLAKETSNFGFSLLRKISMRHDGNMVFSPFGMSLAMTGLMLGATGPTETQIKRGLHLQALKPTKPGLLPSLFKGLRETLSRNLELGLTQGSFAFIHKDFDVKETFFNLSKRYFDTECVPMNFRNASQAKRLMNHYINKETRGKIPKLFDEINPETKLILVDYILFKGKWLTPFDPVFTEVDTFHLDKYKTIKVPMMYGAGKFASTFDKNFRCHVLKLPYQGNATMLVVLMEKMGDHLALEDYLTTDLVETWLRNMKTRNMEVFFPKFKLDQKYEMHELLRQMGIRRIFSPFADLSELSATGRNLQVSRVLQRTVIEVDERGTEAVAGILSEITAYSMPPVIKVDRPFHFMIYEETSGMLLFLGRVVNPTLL

Kd: 7 nM
Substance: Protein Z (from UniProt P22891)
